From publication PMC4995099, “Drosophila Nanos acts as a molecular clamp that modulates the RNA-binding and repression activities of Pumilio” come the findings set out here.

Series [1] deals with T1, Pum PUM-HD WT (EMSA);Nos ZC WT (EMSA) (Drosophila melanogaster?;Drosophila …, UniProt P25822;P25724 1091-1426;289-401, |).
T1 sequence 1: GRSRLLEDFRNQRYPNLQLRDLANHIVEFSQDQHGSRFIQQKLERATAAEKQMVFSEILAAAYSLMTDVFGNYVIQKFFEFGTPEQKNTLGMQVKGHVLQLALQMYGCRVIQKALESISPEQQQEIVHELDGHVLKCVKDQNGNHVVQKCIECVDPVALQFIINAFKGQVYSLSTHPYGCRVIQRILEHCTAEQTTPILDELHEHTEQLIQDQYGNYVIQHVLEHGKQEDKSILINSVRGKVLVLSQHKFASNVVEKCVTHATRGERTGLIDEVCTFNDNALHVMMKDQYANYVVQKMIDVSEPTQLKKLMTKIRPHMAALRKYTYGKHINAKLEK
T1 sequence 2: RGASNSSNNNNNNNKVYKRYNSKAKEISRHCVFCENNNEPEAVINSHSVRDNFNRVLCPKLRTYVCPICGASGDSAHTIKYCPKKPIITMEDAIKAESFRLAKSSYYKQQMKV
Nature of the series: EMSA; Pum titrated, 400 nM Nos ZC constant; EMSA: 50 mM Tris-HCl pH 7.6, 150 mM NaCl, 2 mM DTT, 2 ug/mL BSA, 0.01% Igepal CA-630, 0.02% bromophenol blue, 20% glycerol, 3 h at 4 C; 1 nM Cy5 RNA or 0.3 nM 32P RNA. The settings on record: protein: recombinant;recombinant, tags: N-terminal 3xFLAG, Halo-tag removed by TEV;C-terminal V5, copies: 1;1, label: 5' 32P (EMSA), none (crystal). On the technique in general: A gel shift assay detects complexes by their altered migration in electrophoresis.

For series [2], the target named is T2, Pum PUM-HD WT (EMSA) (UniProt P25822 1091-1426).
T2 sequence: T1 sequence 1
The experiment in a line: EMSA; Pum alone; Kd printed only in figure; EMSA: 50 mM Tris-HCl pH 7.6, 150 mM NaCl, 2 mM DTT, 2 ug/mL BSA, 0.01% Igepal CA-630, 0.02% bromophenol blue, 20% glycerol, 3 h at 4 C; 1 nM Cy5 RNA or 0.3 nM 32P RNA. The settings on record: protein: recombinant; tags: N-terminal 3xFLAG; Halo-tag removed by TEV; label: 5' 32P (EMSA); none (crystal).

Series [3] addresses T3, Nos ZC WT (EMSA) (UniProt P25724 289-401).
T3 sequence: T1 sequence 2
The experiment in a line: EMSA; up to 1 uM Nos ZC; EMSA: 50 mM Tris-HCl pH 7.6, 150 mM NaCl, 2 mM DTT, 2 ug/mL BSA, 0.01% Igepal CA-630, 0.02% bromophenol blue, 20% glycerol, 3 h at 4 C; 1 nM Cy5 RNA or 0.3 nM 32P RNA. As to conditions: protein: recombinant; tags: C-terminal V5; Halo-tag removed by TEV; label: 5' Cy5.

The target of series [4] is T4, Pum Q1337A (UniProt P25822 1091-1426, Q1337A).
T4 sequence: T1 sequence 1 with Q247A
Nature of the series: EMSA; RNA label form not stated; EMSA: 50 mM Tris-HCl pH 7.6, 150 mM NaCl, 2 mM DTT, 2 ug/mL BSA, 0.01% Igepal CA-630, 0.02% bromophenol blue, 20% glycerol, 3 h at 4 C; 1 nM Cy5 RNA or 0.3 nM 32P RNA. As to conditions: protein: recombinant; tags: N-terminal 3xFLAG; Halo-tag removed by TEV; label: 5' Cy5.

Series [5] concerns the target T5, Pum F1367S (UniProt P25822 1091-1426, F1367S).
T5 sequence: T1 sequence 1 with F277S
Described as above. As to conditions: protein: recombinant; tags: N-terminal 3xFLAG; Halo-tag removed by TEV; label: 5' Cy5.

The target of series [6] is T1, Pum PUM-HD WT (EMSA);Nos ZC WT (EMSA). Nature of the series: EMSA; Nos ZC titrated at 100 nM Pum; high affinity, Kd only in figure; EMSA: 50 mM Tris-HCl pH 7.6, 150 mM NaCl, 2 mM DTT, 2 ug/mL BSA, 0.01% Igepal CA-630, 0.02% bromophenol blue, 20% glycerol, 3 h at 4 C; 1 nM Cy5 RNA or 0.3 nM 32P RNA. As to conditions: protein: recombinant;recombinant, tags: N-terminal 3xFLAG, Halo-tag removed by TEV;C-terminal V5, copies: 1;1, label: 5' Cy5.

The target of series [7] is T2, Pum PUM-HD WT (EMSA). The experiment in a line: EMSA; EMSA: 50 mM Tris-HCl pH 7.6, 150 mM NaCl, 2 mM DTT, 2 ug/mL BSA, 0.01% Igepal CA-630, 0.02% bromophenol blue, 20% glycerol, 3 h at 4 C; 1 nM Cy5 RNA or 0.3 nM 32P RNA. The settings on record: protein: recombinant; tags: N-terminal 3xFLAG; Halo-tag removed by TEV; label: 5' Cy5.

Numbering of substitutions follows the chain as printed.

Regarding AAAUUGUACAUAAGCC (ssRNA) [hb NRE2 RNA 16-nt], in series [1], the equilibrium dissociation constant (Kd) (usually the constant that tells how readily two partners part at equilibrium) stood at 8.7 nM. The “fold weaker RNA-binding affinity (Kd ratio)” value in series [2] is 3 fold weaker than with Nos ZC.

Consider UUGUUGUCGAAAAUUGUACAUAAGCC (ssRNA) [Cy5-hb NRE2 RNA], for which the binding result in series [3] is “no binding”; in series [4], “binds”; in series [5] it was “binds”; in series [6] it was “binds”; in series [7], “binds”.
